Reference: publication PMC3642328, “Ataxia Telangiectasia-Mutated (ATM) Kinase Activity Is Regulated by ATP-driven Conformational Changes in the Mre11/Rad50/Nbs1 (MRN) Complex*^([image sbox.jpg])” (The Journal of Biological Chemistry, 2013)
“And” between values parts separate entries of the source, which are not always exact repeats. Equal values may be shown once.

B1: Nbs1 (wild-type) (natural protein, human, UniProt O60934 1-754, looked up)
chain: MWKLLPAAGPAGGEPYRLLTGVEYVVGRKNCAILIENDQSISRNHAVLTANFSVTNLSQTDEIPVLTLKDNSKYGTFVNEEKMQNGFSRTLKSGDGITFGVFGSKFRIEYEPLVACSSCLDVSGKTALNQAILQLGGFTVNNWTEECTHLVMVSVKVTIKTICALICGRPIVKPEYFTEFLKAVESKKQPPQIESFYPPLDEPSIGSKNVDLSGRQERKQIFKGKTFIFLNAKQHKKLSSAVVFGGGEARLITEENEEEHNFFLAPGTCVVDTGITNSQTLIPDCQKKWIQSIMDMLQRQGLRPIPEAEIGLAVIFMTTKNYCDPQGHPSTGLKTTTPGPSLSQGVSVDEKLMPSAPVNTTTYVADTESEQADTWDLSERPKEIKVSKMEQKFRMLSQDAPTVKESCKTSSNNNSMVSNTLAKMRIPNYQLSPTKLPSINKSKDRASQQQQTNSIRNYFQPSTKKRERDEENQEMSSCKSARIETSCSLLEQTQPATPSLWKNKEQHLSENEPVDTNSDNNLFTDTDLKSIVKNSASKSHAAEKLRSNKKREMDDVAIEDEVLEQLFKDTKPELEIDVKVQKQEEDVNVRKRPRMDIETNDTFSDEAVPESSKISQENEIGKKRELKEDSLWSAKEISNNDKLQDDSEMLPKKLLLTEFRSLVIKNSTSRNPSGINDDYGQLKNFKKFKKVTYPGAGKLPHIIGGSDLIAHHARKNTELEEWLRQEMEVQNQHAKEESLADDLFRYNPYLKRRR
notes: wild-type Nbs1, component of the human MRN complex; expressed from transfer vector pTP288 / bacmid pTP291; Used apart from MR (added to MR complexes, coated on PMMA beads); source: Sf21 insect cells, baculovirus, purified

Columns and labels:
ATM = target: T1, ATM (Homo sapiens, UniProt Q13315, Y2755A); experiment: kinase assay, GST-p53 Ser-15 phosphorylation, Western blot; format: biochemical; conditions: H2O2-activated ATM without MRN; analog 1 mM; pH 7.5, 5 mM Mg, 30 C
T1 construct: full-length, Flag-tagged and HA-tagged, transiently expressed in human 293T cells, purified as dimer

[1] = target: Mre11/Rad50 (MR) complex, wild-type full-length (human) (UniProt P49959); experiment: scanning force microscopy (SFM); protein alone: 3 nM human MR in 25 mM Tris-HCl pH 8.0, 10% glycerol, 100 mM NaCl, 1 mM DTT; diluted 5-fold in 10 mM HEPES pH 8.0, 20 mM MgCl2, deposited on mica, imaged in air by tapping mode; forms counted by the number of Rad50 coiled-coils
[2] = target: T2, Mre11/Rad50 (MR) complex, wild-type full-length (human, UniProt P49959 1-708; Q92878 1-1312); experiment: KinExA (kinetic exclusion assay); in the presence of ATP (concentration not stated); 1, 5 and 25 nM MR incubated with 6.1 pM to 400 nM Nbs1 (2-fold dilutions) 1 h at room temperature; free MR captured on Nbs1-coated PMMA beads, detected with anti-Mre11 and Cy5 secondary antibody; PBS; n-Curve Analysis; conditions: both partners purified
T2 construct: wild-type human Mre11, transfer vector pTP813 / bacmid pTP814; wild-type human Rad50, transfer vector pTP11; 1312 residues by the printed construct limits; The unit written here is one Mre11 with one Rad50; also called wild-type MR; human MR; source: Sf21 insect cells, coexpression with baculovirus, purified

[3] = target: T3, Mre11/Rad50(C2G) complex (Rad50 C681G/C684G) (human, UniProt P49959 1-708; Q92878 1-1312, C681G | C684G); experiment: as above; conditions: both partners purified
T3 construct: wild-type human Mre11 (pTP813), as the Mre11 chain of m2; human Rad50 with both zinc hook cysteines mutated; made by QuikChange mutagenesis from pTP11 (the wild-type Rad50 of m2); Zinc hook mutant; also called MR(C2G); C2G MR complex; source: Sf21 insect cells, coexpression with baculovirus, purified

[4] = target: T4, Mre11/Rad50(C2G) complex (Rad50 C681G/C684G) (human, UniProt P49959 1-708; Q92878 1-1312, C681G | C684G); experiment: +ATP
[5] = target: T2, Mre11/Rad50 (MR) complex, wild-type …; experiment: KinExA (kinetic exclusion assay); without ATP; 1, 5 and 25 nM MR incubated with 6.1 pM to 400 nM Nbs1 (2-fold dilutions) 1 h at room temperature; free MR captured on Nbs1-coated PMMA beads, detected with anti-Mre11 and Cy5 secondary antibody; PBS; n-Curve Analysis; conditions: both partners purified
[6] = target: T4, Mre11/Rad50(C2G) complex (Rad50 …; experiment: -ATP
Nbs1 (wild-type) [7] = target: B1; experiment: KinExA (kinetic exclusion assay); in the presence of ATP (concentration not stated); 1, 5 and 25 nM MR incubated with 6.1 pM to 400 nM Nbs1 (2-fold dilutions) 1 h at room temperature; free MR captured on Nbs1-coated PMMA beads, detected with anti-Mre11 and Cy5 secondary antibody; PBS; n-Curve Analysis; conditions: both partners purified
Nbs1 (wild-type) [8] = target: B1; experiment: KinExA (kinetic exclusion assay); without ATP; 1, 5 and 25 nM MR incubated with 6.1 pM to 400 nM Nbs1 (2-fold dilutions) 1 h at room temperature; free MR captured on Nbs1-coated PMMA beads, detected with anti-Mre11 and Cy5 secondary antibody; PBS; n-Curve Analysis; conditions: both partners purified
MR(C2G)N = MR(C2G)N (human, UniProt P49959;Q92878;O60934 1-708;1-1312;1-754, C681G;C684G;Rad50); experiment: EMSA; 0.5 mM AMP-PNP, 5 mM MgCl2, Nbs1 present; altered mobility and complex formation efficiency vs WT; EMSA (Fig. 6A): 10 nM DNA, 25 mM MOPS pH 7.0, 20 mM Tris pH 8.0, 5 mM MgCl2, 8% glycerol, 80 mM NaCl, 2 mM DTT, 0.5 mM AMP-PNP, temperature not stated; SFM: 25; conditions: protein: recombinant; chain copies: 2;2;1; label: Cy5 at 3' end of TP2109; 41 bp duplex, 4 nt 3' overhang on strand 2, other end blunt
[9] = target: Mre11/Rad50/Nbs1 (MRN) wild-type (human, UniProt P49959;Q92878;O60934 1-708;1-1312;1-754); experiment: EMSA; 0.5 mM AMP-PNP, 5 mM MgCl2, Nbs1 present, 100-200 nM MR; EMSA (Fig. 6A): 10 nM DNA, 25 mM MOPS pH 7.0, 20 mM Tris pH 8.0, 5 mM MgCl2, 8% glycerol, 80 mM NaCl, 2 mM DTT, 0.5 mM AMP-PNP, temperature not stated; SFM: 25; conditions: protein: recombinant; chain copies: 2;2;2; label: Cy5 at 3' end of TP2109; 41 bp duplex, 4 nt 3' overhang on strand 2, other end blunt

T1 sequence (Q13315 2-3056 Y2755A): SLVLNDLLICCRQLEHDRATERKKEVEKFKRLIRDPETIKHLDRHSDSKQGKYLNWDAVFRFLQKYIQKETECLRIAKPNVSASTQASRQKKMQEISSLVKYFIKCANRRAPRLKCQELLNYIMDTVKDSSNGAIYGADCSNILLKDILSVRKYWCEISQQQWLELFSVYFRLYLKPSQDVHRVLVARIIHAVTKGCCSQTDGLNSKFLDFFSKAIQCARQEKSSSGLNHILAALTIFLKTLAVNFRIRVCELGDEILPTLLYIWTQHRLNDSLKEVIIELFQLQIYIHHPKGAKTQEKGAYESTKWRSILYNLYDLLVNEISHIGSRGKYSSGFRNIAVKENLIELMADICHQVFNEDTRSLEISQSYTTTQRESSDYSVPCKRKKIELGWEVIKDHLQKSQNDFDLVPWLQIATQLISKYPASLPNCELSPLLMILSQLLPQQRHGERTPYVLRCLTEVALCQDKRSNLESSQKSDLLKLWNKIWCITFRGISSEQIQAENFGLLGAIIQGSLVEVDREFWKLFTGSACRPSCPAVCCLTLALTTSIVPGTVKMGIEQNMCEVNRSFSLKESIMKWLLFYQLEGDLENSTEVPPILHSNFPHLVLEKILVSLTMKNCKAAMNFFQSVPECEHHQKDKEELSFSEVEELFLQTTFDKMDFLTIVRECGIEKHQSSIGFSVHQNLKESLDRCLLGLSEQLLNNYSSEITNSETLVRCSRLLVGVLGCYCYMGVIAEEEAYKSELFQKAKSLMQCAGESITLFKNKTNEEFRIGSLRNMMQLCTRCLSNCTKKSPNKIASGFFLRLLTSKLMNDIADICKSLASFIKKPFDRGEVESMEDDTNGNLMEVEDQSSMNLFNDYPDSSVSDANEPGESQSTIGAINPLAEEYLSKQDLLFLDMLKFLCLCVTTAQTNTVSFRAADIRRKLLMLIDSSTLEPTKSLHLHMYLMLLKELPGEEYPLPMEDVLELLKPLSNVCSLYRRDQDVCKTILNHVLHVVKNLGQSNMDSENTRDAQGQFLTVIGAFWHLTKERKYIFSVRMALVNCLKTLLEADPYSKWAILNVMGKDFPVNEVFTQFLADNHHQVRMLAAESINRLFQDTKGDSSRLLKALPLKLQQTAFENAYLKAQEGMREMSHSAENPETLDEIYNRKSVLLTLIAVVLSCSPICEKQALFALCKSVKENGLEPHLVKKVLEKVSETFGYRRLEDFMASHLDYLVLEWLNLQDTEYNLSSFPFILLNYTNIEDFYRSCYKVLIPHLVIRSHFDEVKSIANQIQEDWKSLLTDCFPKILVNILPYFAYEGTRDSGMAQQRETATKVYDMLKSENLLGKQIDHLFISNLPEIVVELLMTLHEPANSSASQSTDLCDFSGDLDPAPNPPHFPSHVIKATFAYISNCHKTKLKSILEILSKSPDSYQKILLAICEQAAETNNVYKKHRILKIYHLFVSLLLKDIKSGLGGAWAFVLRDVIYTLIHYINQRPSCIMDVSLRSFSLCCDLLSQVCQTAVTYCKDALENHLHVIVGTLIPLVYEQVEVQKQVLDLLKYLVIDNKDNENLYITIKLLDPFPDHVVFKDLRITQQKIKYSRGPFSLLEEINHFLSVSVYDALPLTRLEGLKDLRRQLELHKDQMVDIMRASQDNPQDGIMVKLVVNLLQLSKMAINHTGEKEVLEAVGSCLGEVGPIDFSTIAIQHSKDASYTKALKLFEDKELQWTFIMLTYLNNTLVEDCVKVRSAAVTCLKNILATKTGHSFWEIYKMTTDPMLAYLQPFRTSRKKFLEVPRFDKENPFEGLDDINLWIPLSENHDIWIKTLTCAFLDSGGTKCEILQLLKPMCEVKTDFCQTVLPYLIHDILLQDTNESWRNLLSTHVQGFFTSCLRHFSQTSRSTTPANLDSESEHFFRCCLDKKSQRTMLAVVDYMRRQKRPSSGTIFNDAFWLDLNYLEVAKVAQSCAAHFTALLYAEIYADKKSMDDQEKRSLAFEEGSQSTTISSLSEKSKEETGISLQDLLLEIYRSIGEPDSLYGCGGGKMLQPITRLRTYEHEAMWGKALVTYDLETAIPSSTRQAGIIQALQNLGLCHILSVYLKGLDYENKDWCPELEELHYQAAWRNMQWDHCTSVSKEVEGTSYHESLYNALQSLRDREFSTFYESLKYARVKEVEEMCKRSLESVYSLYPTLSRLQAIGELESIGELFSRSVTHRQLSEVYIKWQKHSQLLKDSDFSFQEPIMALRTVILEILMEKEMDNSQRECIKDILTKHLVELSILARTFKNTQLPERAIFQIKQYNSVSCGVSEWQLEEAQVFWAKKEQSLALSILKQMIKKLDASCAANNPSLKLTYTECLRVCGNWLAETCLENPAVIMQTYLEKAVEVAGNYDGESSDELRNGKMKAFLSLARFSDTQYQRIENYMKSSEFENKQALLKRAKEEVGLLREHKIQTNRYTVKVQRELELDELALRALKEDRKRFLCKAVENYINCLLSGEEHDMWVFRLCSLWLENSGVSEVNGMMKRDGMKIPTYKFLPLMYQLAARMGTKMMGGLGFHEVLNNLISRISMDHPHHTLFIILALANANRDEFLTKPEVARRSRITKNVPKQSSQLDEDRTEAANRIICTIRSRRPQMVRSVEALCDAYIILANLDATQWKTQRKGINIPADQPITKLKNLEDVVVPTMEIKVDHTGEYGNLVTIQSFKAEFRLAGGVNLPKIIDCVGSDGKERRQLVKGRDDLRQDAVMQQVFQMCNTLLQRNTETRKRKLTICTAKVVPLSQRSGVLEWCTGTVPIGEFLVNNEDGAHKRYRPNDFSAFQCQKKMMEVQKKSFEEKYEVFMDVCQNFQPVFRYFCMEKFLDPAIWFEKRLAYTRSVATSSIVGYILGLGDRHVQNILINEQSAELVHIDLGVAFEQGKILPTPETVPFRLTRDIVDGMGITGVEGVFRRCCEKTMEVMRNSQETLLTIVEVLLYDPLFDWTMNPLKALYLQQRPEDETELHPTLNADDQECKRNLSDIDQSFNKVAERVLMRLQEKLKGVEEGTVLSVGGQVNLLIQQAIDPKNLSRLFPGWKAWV

Q: `O=P(O)(O)OP(=O)(O)OP(=O)(O)OC[C@H]1O[C@@H](n2cnc3c(NCc4ccco4)ncnc32)[C@H](O)[C@@H]1O` [N6-(furfuryl)-ATP, N6-furfuryladenosine-5′-O-triphosphate] was tested. Which “kinase assay, GST-p53 Ser-15 phosphorylation, Western blot” value (ATM) did it give?
A: Its value is “This nucleotide was utilized by Y2755A ATM but not by wild-type ATM”.

Q: Which stoichiometry N [1] does the source give for “Mre11/Rad50 (MR) complex, wild-type full-length, P49959 1-708; Q92878 1-1312” here?
A: The stoichiometry N was 2 and > 4.

Q: Which results are given for B1?
A: Kd [2]: 0.00382 nM; fold higher affinity in the presence of ATP than in the absence of ATP [3]: ~70 fold; Kd [4]: 0.11 nM; Kd [5]: 0.00917 nM; Kd [6]: 7.3 nM

B2: Mre11/Rad50(DelCC) complex (Rad50 coiled-coil region replaced with a linker) (complex, human)
chain 1: MSTADALDDENTFKILVATDIHLGFMEKDAVRGNDTFVTLDEILRLAQENEVDFILLGGDLFHENKPSRKTLHTCLELLRKYCMGDRPVQFEILSDQSVNFGFSKFPWVNYQDGNLNISIPVFSIHGNHDDPTGADALCALDILSCAGFVNHFGRSMSVEKIDISPVLLQKGSTKIALYGLGSIPDERLYRMFVNKKVTMLRPKEDENSWFNLFVIHQNRSKHGSTNFIPEQFLDDFIDLVIWGHEHECKIAPTKNEQQLFYISQPGSSVVTSLSPGEAVKKHVGLLRIKGRKMNMHKIPLHTVRQFFMEDIVLANHPDIFNPDNPKVTQAIQSFCLEKIEEMLENAERERLGNSHQPEKPLVRLRVDYSGGFEPFSVLRFSQKFVDRVANPKDIIHFFRHREQKEKTGEEINFGKLITKPSEGTTLRVEDLVKQYFQTAEKNVQLSLLTERGMGEAVQEFVDKEEKDAIEELVKYQLEKTQRFLKERHIDALEDKIDEEVRRFRETRQKNTNEEDDEVREAMTRARALRSQSEESASAFSADDLMSIDLAEQMANDSDDSISAATNKGRGRGRGRRGGRGQNSASRGGSQRGRADTGLETSTRSRNSKTAVSASRNMSIIDAFKSTRQQPSRNVTTKNYSEVIEVDESDVEEDIFPTTSKTDQRWSSTSSSKIMSQSQVSKGVDFESSEDDDDDPFMNTSSLRRNRR
chain 2: MSRIEKMSILGVRSFGIEDKDKQIITFFSPLTILVGPNGAGKTTIIECLKYICTGDFPPGTKGNTFVHDPKVAQETDVRAQIRLQFRDVNGELIAVQRSMVCTQKSKKTEFKTLEGVITRTKHGEKVSLSSKCAEIDREMISSLGVSKAVLNNVIFCHQEDSNWPLSEGKALKQKFDEIFSATRYIKALETLRQVRQTQGQKVKEYQMELKYLKQYPPAAAGGYREMMIVMRTTELVNKDLDIYYKTLDQAIMKFHSMKMEEINKIIRDLWRSTYRGQDIEYIEIRSDADENVSASDKRRNYNYRVVMLKGDTALDMRGRCSAGQKVLASLIIRLALAETFCLNCGIIALDEPTTNLDRENIESLAHALVEIIKSRSQQRNFQLLVITHDEDFVELLGRSEYVEKFYRIKKNIDQCSEIVKCSVSSLGFNVH
notes: wild-type human Mre11 (pTP813), as the Mre11 chain of m2; human Rad50 N terminus, amino acids 1-216; linker peptide between the two Rad50 domains; human Rad50 C terminus, amino acids 1104-1312; The His tag is inferred from the vector name only; also called MR(DelCC); DelCC MR; source: Sf21 insect cells, coexpression with baculovirus (Bac-to-Bac), purified
Q: For B2, which Kd (Nbs1 (wild-type) [7]) is on record?
A: The Kd was 0.0503 nM.

Q: And the Kd (Nbs1 (wild-type) [8])?
A: The Kd was 17.7 nM.

B3: TP2151/TP2109 (dsDNA)
DNA 1: CTTGCATGCCTCAGCTATTCCGGATTATTCATACCGTCCCA
DNA 2: TGGGACGGTATGAATAATCCGGAATAGCTGAGGCATGCAAGTCTA
Q: What does the source list for B3?
A: binding result (MR(C2G)N): binds; binding result [9]: binds
